These results are taken from the nanobody polyreactivity screen of Harvey et al. (2022).

The nature of this data set: yeast display, Sf9 membrane polyspecificity reagent, FACS + sequencing; frameworks hold sequencing errors. Summed up:
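A nanobody's polyreactivity label depends on the gate it was sorted from. Yeast display cells were stained with 10% biotinylated, detergent-solubilized Sf9 membrane reagent for 1 hour at 4 °C, enriched on streptavidin microbeads and sorted by FACS. The low and high (top ~1%) gates were set on anti-HA fluorescence for expression and streptavidin fluorescence for reagent binding.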
With “QVQLVESGGGLVQAGGSLRLSCAASGSTFVGYVMGWYRQAPGKERELVAAITRSGTSTYYADSVKGRFTISRDNAKNTVYLQMNSLKPEDTAVYYCALRYVSSDYYYWGQGTQVTVSS”, the “polyreactivity (PSR sort gate)” value is recorded as “low polyreactivity”.

Regarding “QVQLVESGGGLVQAGGSLRLSCAASGSTFVHYDMGWYRQAPGKERELVAGSTTGGSTNYADSVKGRFTISRDNAKNTVYLQMNSLKPEDTAVYYCNADSYPNLVPDYLYYWYEYWGQGTQVTVSS”, the “polyreactivity (PSR sort gate)” value is recorded as “low polyreactivity”.

Consider “QVQLVESGGGLVQAGGSLRLSCAASGSTFVHYGMGWYRQAPGKERELVAAISYSGGSTSYADSVKGRFTISRDNAKNTVYLQMNSLKPEDTAVYYCATVRKRRYDYWGQGTQVTVSS”, for which the “polyreactivity (PSR sort gate)” value is on record as “low polyreactivity”.

Regarding “QVQLVESGGGLVQAGGSLRLSCAASGSTFVIYAMGWYRQAPGKERELVASIRGRTGSTYYADSVKGRFTISRDNAKNTVYSQLNSLKPEDTAVYYCAAKPGYKSKMDYWGQGTQVTVSS”, the “polyreactivity (PSR sort gate)” value is reported as “high polyreactivity”.

“QVQLVESGGGLVQAGGSLRLSCAASGSTFVIYDMGWYRQAPGKERELVAAISYSGGSTYYADSVKGRFTISRDNAKNTVYLQMNSLKPEDTAVYYCNAGVLVLLYAYLPSELEYWGQGTQVTVSS”: the “polyreactivity (PSR sort gate)” value is reported as “low polyreactivity”.

“QVQLVESGGGLVQAGGSLRLSCAASGSTFVKNTMGWYRQAPGKERELVAAIRSSGGSTYYADSVKGRFTISRDNAKNTVYLQMNSLKPEDTAVYYCNKVLQASRSKYYYWGQGTQVTVSS”: the “polyreactivity (PSR sort gate)” value is “high polyreactivity”.

Turning to “QVQLVESGGGLVQAGGSLRLSCAASGSTFVLNAMGWDRQAPGKERELVAAITRDGRTYYADSVKGRFTISRDNAKNTVYLQMNSLKPEDTAVYYCARPARYSYGDGYWGQGTQVTVSS”, the “polyreactivity (PSR sort gate)” value is “low polyreactivity”.

“QVQLVESGGGLVQAGGSLRLSCAASGSTFVLNAMGWYRQAPGKERELVAAISSGGRTYYADSVKGRFTISRDNAKNTVYLQMNSLKPEDTAVYYCAAKPYRGGHRTLFGYWGQGTQVTVSS”: the “polyreactivity (PSR sort gate)” value is “high polyreactivity”.

Turning to “QVQLVESGGGLVQAGGSLRLSCAASGSTFVLYAMGWYRQAPGKERELVATISSGGSTYYADSVKGRFTISRDNAKNTVYLQMNRLKPEDTAVYYCAASYSRFVDWIGDPGYDYWGQGTQVTVSS”, the “polyreactivity (PSR sort gate)” value is given as “low polyreactivity”.

Consider “QVQLVESGGGLVQAGGSLRLSCAASGSTFVNNAMGWYRQAPGTERELVAAIRSSDGRTYYADSVKGRFTISRDNAKNTVYLQMNSLKPEDTAVYYCATAVGTKYRTRIFEYYYWGQGTQVTVSS”, for which the “polyreactivity (PSR sort gate)” value was “high polyreactivity”.

For “QVQLVESGGGLVQAGGSLRLSCAASGSTFVPNAMGWYRQAPGKEREFVAAIRVSGDNTYYADSVKGRFTISRDNAKNTVYLQMNSLKPEDTAVYYCAATGTVLGSVDYWGQGTQVTVSS”, the “polyreactivity (PSR sort gate)” value is “low polyreactivity”.

Turning to “QVQLVESGGGLVQAGGSLRLSCAASGSTFVRNAMGWYRQAPGKERELVAAISRSGGRTYYADSVKGRFTISRDNAKNTVYLQMNSLKPEDTAVYYCAADVYDAGVRYDYWGQGTQVTVSS”, the “polyreactivity (PSR sort gate)” value is listed as “high polyreactivity”.

For the sequence “QVQLVESGGGLVQAGGSLRLSCAASGSTFVRNAMGWYRQAPGKERELVAGISTGDNTYYADSVKGRFTISRDNAKNTVNLQMNSLKPEDTAVYYCAARGLPSNYYYYVHGYIMDYWGQGTQVTVSS”, the “polyreactivity (PSR sort gate)” value is listed as “low polyreactivity”.

Take “QVQLVESGGGLVQAGGSLRLSCAASGSTFVRYAMGWYRQAPGKERELVAAITWSGGITYYADSVKGRFTISRDNAKNTVYLQMNSLKPEDTAVYYCNAEQKQYEKSYDYWGQGTQVTVSS”: the “polyreactivity (PSR sort gate)” value was “low polyreactivity”.

In the case of “QVQLVESGGGLVQAGGSLRLSCAASGSTFVSNAMGWSRQAPGKERELVAAITRRGGSTYYADSVKGRFTISRDNAKNTVYLQMNSLKPEDTAVYYCAAYSTLTPAYEYWGQGTQVTVSS”, the “polyreactivity (PSR sort gate)” value is given as “high polyreactivity”.

Regarding “QVQLVESGGGLVQAGGSLRLSCAASGSTFVSNVMGWYRQAPGKERELVAAITSGGSTYYADSVKGRFTISRDNAKNTVYLQMNSLKPEDTAVYYCAAGGRWARWLFPSRYDYWGQGTQVTVSS”, the “polyreactivity (PSR sort gate)” value is reported as “low polyreactivity”.

As to “QVQLVESGGGLVQAGGSLRLSCAASGSTFVTNAMVWYRQAPGKEREFVAAIRWSAGNTYYADSVKGRFTISRDNAKNTVFLQMNSLKPEDTAVYYCAADIYEQRSTYYAEYYSWGQGTQVTVSS”, the “polyreactivity (PSR sort gate)” value is listed as “low polyreactivity”.

“QVQLVESGGGLVQAGGSLRLSCAASGSTFVTNGMGWYRQAPGKERELVAAISGNVGSTYYADSVKGRFTISRDNAKNTVYLQMNSLKPEDTAVYYCAARQYRPSDYDYWGQGTQVTVSS”: the “polyreactivity (PSR sort gate)” value is “low polyreactivity”.

For “QVQLVESGGGLVQAGGSLRLSCAASGSTFVTNVMGSYRQAPGKERELVAAISYSGGNTYYEDSVKGRFTISRDNSKNTVYLQRNSLNPEDTAVYYCDASYKQFKKMGYWGQGTQVTVSS”, the “polyreactivity (PSR sort gate)” value is “high polyreactivity”.

As to “QVQLVESGGGLVQAGGSLRLSCAASGSTFVTYTMGWYRQAPGKERELVAAISWSGDTTYADSVKGRFTISRDNAKNTVYLQMNSLKPVDTAVYYCAADDDWSGVEFDYLGQGTQVTVSS”, the “polyreactivity (PSR sort gate)” value is reported as “low polyreactivity”.

As to “QVQLVESGGGLVQAGGSLRLSCAASGSTFVVNTMGRYRQAPGKERELVAAISTGSSTYADSVKGRFTISRDNAKNTVYLQMNSLKPEDTAVYYCNTAFPGKYDYWGQGTQVTVSS”, the “polyreactivity (PSR sort gate)” value was “low polyreactivity”.

Regarding “QVQLVESGGGLVQAGGSLRLSCAASGSTFVVYAMGWYRQAPGKERELVAAIDLSVGDTYYADSVKGRFTISRDNAKNTVYLQMNSLKPEDTAVYYCAAEFYSYKYPDYDYWGQGTQVTVSS”, the “polyreactivity (PSR sort gate)” value is on record as “low polyreactivity”.

For the sequence “QVQLVESGGGLVQAGGSLRLSCAASGSTFVWNAMGWYRQAPGKERELVASISSSGDRTYYADSVKGRFTISRDNAKNTVYLQMNSLKPEDTAVYYCAARYTRADYDYLGQGTQVTVSS”, the “polyreactivity (PSR sort gate)” value is “high polyreactivity”.

Take “QVQLVESGGGLVQAGGSLRLSCAASGSTFVWYAMGWYRQAPGKEREFDATISWSDGSRYYADSVKGRFTISRDNAKNTVYLHMNSLKPEDPAVYYCASDVDRFFTYTYDYWGQGTQVTVSS”: the “polyreactivity (PSR sort gate)” value was “low polyreactivity”.

For the sequence “QVQLVESGGGLVQAGGSLRLSCAASGSTFVWYAMGWYRQAPGKERELVAVIDWSGGSTSYADSVKGRFTISRDNAKNTVYLQMNSLKPEDTAVYYCAADSGHYYGLYYWGQGTQVTVSS”, the “polyreactivity (PSR sort gate)” value is recorded as “low polyreactivity”.

As for “QVQLVESGGGLVQAGGSLRLSCAASGSTFVYMGGYRQAPGKEREFVAITFSGGRTYADSVKGRFTISRDNAKNTVYLQMNSLKPEDTAVYYCNKGDDFYSTYSYDYWGQGTQVTVSS”, the “polyreactivity (PSR sort gate)” value is reported as “low polyreactivity”.

On to “QVQLVESGGGLVQAGGSLRLSCAASGSTFVYNAMGWYRQAPGKEREFVAVINWSGGRTYADSVKGRFTISRDNAKNTVYLQMISLKPEDTEVYYCIARRRTGYRPAMDYWGQGTEVTVSS”, for which the “polyreactivity (PSR sort gate)” value is recorded as “high polyreactivity”.

For “QVQLVESGGGLVQAGGSLRLSCAASGSTFVYNAMGWYRQAPGKERELVAAISRRGTSTYYADSVKGRFTISRDNAKNTVYLQMNSLKPEDTAVYYCAASQLSRSGQYRRDYWGQGTQVTVSS”, the “polyreactivity (PSR sort gate)” value is on record as “high polyreactivity”.

For “QVQLVESGGGLVQAGGSLRLSCAASGSTFVYNAMGWYRQAPGKERELVAAITVIGGRTYYADSVKGRFTISRDNAKNTVYLQMISLKPEDTAVYYCNADATESIGYYDEYEYWGQGTQVTVSS”, the “polyreactivity (PSR sort gate)” value was “low polyreactivity”.

“QVQLVESGGGLVQAGGSLRLSCAASGSTFVYSAMGWYRQAPGKERELVAAIRNGDGTNYADSVKGRFTISRDNAMNTVYLQMNSLKPEDTAVYYCAAPQGEYFYVYEFDYWGQGTQVTVSS”: the “polyreactivity (PSR sort gate)” value was “low polyreactivity”.

Consider “QVQLVESGGGLVQAGGSLRLSCAASGSTFVYYAMGWYRQAPGKERELVAAINRSGTRTYYADSVKGRFTISRDNAKNTVYLQMNSLKPEDTAVYYCAKAVQGKYGYWGQGTQVTVSS”, for which the “polyreactivity (PSR sort gate)” value is given as “high polyreactivity”.

In the case of “QVQLVESGGGLVQAGGSLRLSCAASGSTFVYYAMGWYRQAPGKERELVAAISSGGNTKYADSVKGRFTISRDNAKNTVYLQMNSLKPEDTAVYYCARESQSYYDHDYWGQGTQVTVSS”, the “polyreactivity (PSR sort gate)” value was “low polyreactivity”.

With “QVQLVESGGGLVQAGGSLRLSCAASGSTFVYYAMGWYRQAPGKERELVAAITGSVDSTYYADSVKGRFTISRDNAKNTVYLQMNSLKPEDTAVYYCAADTYSTYWGQGTQVTVSS”, the “polyreactivity (PSR sort gate)” value was “low polyreactivity”.

Regarding “QVQLVESGGGLVQAGGSLRLSCAASGSTFVYYDMGWYRQAPGKERELVAAISRGGGSTYYADSVKGRFTISRDNAKNTVYLQMNSLKPEDTAVYYCAAVAGYRYYWGQGTQVTVSS”, the “polyreactivity (PSR sort gate)” value is “high polyreactivity”.

As for “QVQLVESGGGLVQAGGSLRLSCAASGSTFVYYTMGWYRQAPGKERELVATISSRGGSTYYADSVKGRFTISRDNAKNTVYLQMNSLKPEDTAVYYCAKRGPFYGNYDYWGQGTQVTVSS”, the “polyreactivity (PSR sort gate)” value is recorded as “high polyreactivity”.

Consider “QVQLVESGGGLVQAGGSLRLSCAASGSTFWANAMGWSRPAPGKERELVAAITSTGITYYADSVKGRFTISRDNAKNTVYLQMNSLIPEDTAVYYCAAEPPDEFWTDLLVDYFLGYEYWGPGTQVTVSS”, for which the “polyreactivity (PSR sort gate)” value was “low polyreactivity”.

Regarding “QVQLVESGGGLVQAGGSLRLSCAASGSTFWATAMGWYRQAPGKERELVAAITTSGASTNYADSVKGRFTISRDNAKNTVYLQMNSLKPEDTAVYYCAADYDSYYWYNYWGQGTQVTVSS”, the “polyreactivity (PSR sort gate)” value is “low polyreactivity”.

Regarding “QVQLVESGGGLVQAGGSLRLSCAASGSTFWEYAMGWYRQAPGKEREFVAAISYRGGGTYYADSVKGRFTISRDNAKNTVYLQKNSLKPEDTAVYYCAARRWRGRYWGDYWGQGTQVTVSS”, the “polyreactivity (PSR sort gate)” value is listed as “high polyreactivity”.

With “QVQLVESGGGLVQAGGSLRLSCAASGSTFWFNAMGWYRQAPGKEREFVAAITWRGGSTYYSDSVKGRFTISRDNAKNTVYLQMNSLKPEDTAVYYCAAVTAYYYRRTYEYWGQGTQVTVSS”, the “polyreactivity (PSR sort gate)” value was “high polyreactivity”.

As for “QVQLVESGGGLVQAGGSLRLSCAASGSTFWFYAMGWYRPAPGKERELVAVISNSGSTYYADSVKGRFTISRDNAKNTVYLQMNSLQPEDTAVYYCNKDGGGDSYWYDYWGQGTQVTVSS”, the “polyreactivity (PSR sort gate)” value is listed as “low polyreactivity”.

In the case of “QVQLVESGGGLVQAGGSLRLSCAASGSTFWFYAMGWYRQAPGKERELVAAISRSSGSTYYADSVKGRFTISRDNAKNTVYLQMNSLKPEDTAVYYCAKGWSSVPTQYDYWGQGTQVTVSS”, the “polyreactivity (PSR sort gate)” value was “low polyreactivity”.
